Assay results from the supplement of paper PMC7877785.
± gives the uncertainty stated by the source.

Experiment: self-splicing fitness, log relative to wild type (ln ratio); higher = more splicing; Tetrahymena group I intron in knt gene, E. coli kanamycin selection, DiMSum; sequences stand for … in CUCUCU…GGAGGGAAAAGUUAUCAGGCAUGCACCUGGUAGCUAGUCUUUAAACCAAUAGAUUGCAUCGGUUUAAAAGGCAAGACCGUCAAAUUGCGGGAAAGGGGUCAACAGCCGUUCAGUACCAAGUCUCAGGGGAAACUUUGAGAUGGCCUUGCAAAGGGUAUGGUAAUAAGCUGACGGACAUGGUCCUAACCACGCAGCCAAGUCCUAAGUCAACAGAUCUUCUGUUGAUAUGGAUGCAGUUCACAGACUAAAUGUCGGUCGGGGAAGAUGUAUUCUUCUCAUAAGAUAUAGUCGGACCUCUCCUUAAUGGGAGCUAGCGGAUGAAGUGAUGCAACACUGGAGCCGCUGGGAACUAAUUUGUAUGCGAAAGUAUAUUGAUUAGUUUUGGAGUACUCGUGGUCG
Method in brief: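 DiMSum derived fitness as the error-weighted combination of fold changes across replicates, kanamycin versus no kanamycin, normalised to wild type. E. coli BL21(DE3) held the library, which randomised all eight P1ex-region intron nucleotides within the knt kanamycin-resistance gene on pET-22b(+). Six replicate transformations grew overnight at 37°C or 30°C on LB agar with or without 25 μg/mL kanamycin, also containing 100 μg/mL carbenicillin, 50 μM IPTG and 0.2% rhamnose, and pooled colonies were amplicon-sequenced on an Illumina HiSeq 2500.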

Sequence	self-splicing fitness (ln) (30 °C)	self-splicing fitness (ln) (37 °C)
CUGGAGCAAUAUUACGCAAA	-3.87 ± 0.42	–
GAUAAGCAAUAUUACGGCAU	-0.333 ± 0.06	0.188 ± 0.085
AUCCAGCAAUAUUACGCAGG	-2.84 ± 0.3	-2.7 ± 0.37
ACGUAGCAAUAUUACGUGAU	-3.19 ± 0.14	-1.63 ± 0.12
UGCAAGCAAUAUUACGGGAG	-2.41 ± 0.096	-1.71 ± 0.098
AUCCAGCAAUAUUACGGAGG	-2.21 ± 0.097	-0.607 ± 0.13
GUCGAGCAAUAUUACGUCUU	-2 ± 0.1	-1.39 ± 0.09
GGCAAGCAAUAUUACGCCAC	-3.87 ± 0.43	–
GUUAAGCAAUAUUACGAUCA	-0.949 ± 0.23	-0.245 ± 0.2
GUUAAGCAAUAUUACGGAUG	-3.1 ± 0.28	-0.786 ± 0.16
GACUAGCAAUAUUACGUACG	-0.653 ± 0.066	-0.585 ± 0.098
GUUAAGCAAUAUUACGAGUA	-2.5 ± 0.12	-1.32 ± 0.095
UCCGAGCAAUAUUACGGACG	-3.59 ± 0.24	-2.37 ± 0.25
UAUAAGCAAUAUUACGCACG	-0.779 ± 0.16	-0.566 ± 0.17
GUUCAGCAAUAUUACGUUUG	-2.75 ± 0.15	-1.22 ± 0.14
UUGAAGCAAUAUUACGCACC	-2.62 ± 0.34	-1.41 ± 0.4
ACGAAGCAAUAUUACGUUGU	-2.95 ± 0.14	-1.86 ± 0.12
UCCUAGCAAUAUUACGAGGG	-2.97 ± 0.25	-2.7 ± 0.45
GCUCAGCAAUAUUACGUUCG	-1.13 ± 0.065	-0.838 ± 0.074

Sequence	self-splicing fitness (ln) (30 °C)	self-splicing fitness (ln) (37 °C)
GUCGAGCAAUAUUACGUAAU	-0.411 ± 0.065	-0.515 ± 0.09
GGGUAGCAAUAUUACGCAGA	-2.97 ± 0.28	-1.93 ± 0.26
UUGAAGCAAUAUUACGUAGG	-1.27 ± 0.11	-0.153 ± 0.12
UGCGAGCAAUAUUACGGGAG	-4.04 ± 0.19	-2.61 ± 0.17
GGGAAGCAAUAUUACGGAUC	-0.0316 ± 0.077	-0.684 ± 0.088
CGUGAGCAAUAUUACGUAGG	-1.12 ± 0.089	-1.39 ± 0.12
GUUCAGCAAUAUUACGUUCC	-2.79 ± 0.29	-1.78 ± 0.41
GGCCAGCAAUAUUACGGACU	-2.24 ± 0.1	-1.2 ± 0.1
AUCAAGCAAUAUUACGGAAA	-2.58 ± 0.24	-1.7 ± 0.21
ACUUAGCAAUAUUACGAUAG	-2.71 ± 0.12	-1.7 ± 0.16
GGAUAGCAAUAUUACGGAAG	-3.41 ± 0.26	-2.85 ± 0.24
GAGCAGCAAUAUUACGCUAA	-1.3 ± 0.15	-0.144 ± 0.18
CUGGAGCAAUAUUACGUAGA	–	-2.67 ± 0.2
CAUGAGCAAUAUUACGUUUU	-3.66 ± 0.21	-2.86 ± 0.24
AGUGAGCAAUAUUACGGUGG	-3.06 ± 0.19	-2.69 ± 0.3
ACUGAGCAAUAUUACGGGAG	-3.29 ± 0.2	-2.74 ± 0.2
GGUGAGCAAUAUUACGGUAU	-3.49 ± 0.23	-3 ± 0.4
UAUCAGCAAUAUUACGCCCU	-0.754 ± 0.11	-0.333 ± 0.14
UCUCAGCAAUAUUACGCGCA	-0.638 ± 0.16	-0.617 ± 0.18
